Positions count from the first letter of the chain named. Names and notes keep the numbering of the source.
B1: wt Tencon (designed binder)
chain: LPAPKNLVVSEVTEDSLRLSWTAPDAAFDSFLIQYQESEKVGEAINLTVPGSERSYDLTGLKPGTEYTVSIYGVKGGHRSNPLSAEFTT
notes: also called wild type tencon
B2: A10V, W47A (designed binder)
chain: MLPAPKNLVVSRVTEDSARLSWTAPDAAFDSFNIAYWEPGIGGEAIALRVPGSERSYDLTGLKPGTEYKVWIHGVKGGASSPPLIARFTT
notes: Variant of B7; not shown: His tag: FN3 domains were purified as His-tagged proteins
B3: A10V, W37A (designed binder)
chain: B2 chain with W37A, A47W
notes: as for B2
B4: A10V, W71A (designed binder)
chain: B2 chain with A47W, W71A
notes: as for B2
B5: A10V, H73A (designed binder)
chain: B2 chain with A47W, H73A
notes: as for B2
B6: A10V, I85A (designed binder)
chain: B2 chain with A47W, I85A
notes: as for B2
B7: A10V, N33A (designed binder)
chain: B2 chain with N33A, A47W
notes: as for B2
B8: A10V (designed binder)
chain: B2 chain with A47W
notes: Variant of B7; also called B7 A10V; not shown: His tag: FN3 domains were purified as His-tagged proteins
B9: A10V, R87A (designed binder)
chain: B2 chain with A47W, R87A
notes: as for B2
B10: A10V, R49A (designed binder)
chain: B2 chain with A47W, R49A
notes: as for B2
B11: A10V, A79S (designed binder)
chain: B2 chain with A47W, A79S
notes: as for B2
B12: A10V, K69A (designed binder)
chain: B2 chain with A47W, K69A
notes: as for B2
B13: A10V, S80A (designed binder)
chain: B2 chain with A47W, S80A
notes: as for B2
B14: A10V, P39A (designed binder)
chain: B2 chain with P39A, A47W
notes: as for B2
B15: B7 (designed binder)
chain: B2 chain with V10A, A47W
notes: FN3 domain (Tencon27-based library clone) expressed in E. coli; also called ALB40; not shown: His tag: FN3 domains were purified as His-tagged proteins
B16: A10V, G42A (designed binder)
chain: B2 chain with G42A, A47W
notes: as for B2
B17: A10V, I41A (designed binder)
chain: B2 chain with I41A, A47W
notes: as for B2
B18: A10V, G40A (designed binder)
chain: B2 chain with G40A, A47W
notes: as for B2
B19: A10V, A35S (designed binder)
chain: B2 chain with A35S, A47W
notes: as for B2
B20: A10V, P82A (designed binder)
chain: B2 chain with A47W, P82A
notes: as for B2

The binders below were run against T1, Cynomolgus Serum Albumin (cynomolgus monkey, UniProt A2V9Z4 25-608) (assay: ELISA on immobilized cynomolgus albumin).
T1 construct: ELISA: albumin coated on plates; pull-down: endogenous albumin in cynomolgus serum; also called cSA; Cyno SA
T1 sequence (A2V9Z4 25-608 limits assumed): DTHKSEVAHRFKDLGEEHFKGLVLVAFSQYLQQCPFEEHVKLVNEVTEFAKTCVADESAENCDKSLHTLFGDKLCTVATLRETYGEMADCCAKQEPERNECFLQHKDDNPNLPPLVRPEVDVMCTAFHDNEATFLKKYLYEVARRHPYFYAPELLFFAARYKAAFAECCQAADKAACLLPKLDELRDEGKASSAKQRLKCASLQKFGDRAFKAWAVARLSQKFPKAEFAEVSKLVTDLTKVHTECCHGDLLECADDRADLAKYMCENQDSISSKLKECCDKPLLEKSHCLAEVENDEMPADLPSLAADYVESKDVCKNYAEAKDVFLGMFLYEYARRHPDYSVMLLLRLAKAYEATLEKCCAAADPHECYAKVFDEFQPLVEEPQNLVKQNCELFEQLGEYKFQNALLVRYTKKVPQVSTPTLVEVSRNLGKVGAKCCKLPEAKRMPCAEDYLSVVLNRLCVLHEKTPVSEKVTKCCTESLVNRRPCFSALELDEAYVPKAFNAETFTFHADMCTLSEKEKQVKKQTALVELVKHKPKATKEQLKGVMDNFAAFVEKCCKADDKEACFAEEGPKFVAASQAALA
Procedure: (§1) The FN3 proteins were also tested in an ELISA assay to determine their ability to bind to immobilized human or cynomolgous albumin. The binding of 667 nM B7 and B7 variants to human or cynomolgous albumin are illustrated in Table 7. The negative control is wt Tencon.
B1: no binding (tested: 667 nM).

The binders below were run against T2, Human Serum Albumin (human, UniProt P02768 25-609) (assay: ELISA on immobilized human albumin).
T2 construct: ELISA: albumin coated on plates; pull-down: endogenous albumin in normal human serum; also called HSA; Human SA
T2 sequence (P02768 25-609 limits assumed): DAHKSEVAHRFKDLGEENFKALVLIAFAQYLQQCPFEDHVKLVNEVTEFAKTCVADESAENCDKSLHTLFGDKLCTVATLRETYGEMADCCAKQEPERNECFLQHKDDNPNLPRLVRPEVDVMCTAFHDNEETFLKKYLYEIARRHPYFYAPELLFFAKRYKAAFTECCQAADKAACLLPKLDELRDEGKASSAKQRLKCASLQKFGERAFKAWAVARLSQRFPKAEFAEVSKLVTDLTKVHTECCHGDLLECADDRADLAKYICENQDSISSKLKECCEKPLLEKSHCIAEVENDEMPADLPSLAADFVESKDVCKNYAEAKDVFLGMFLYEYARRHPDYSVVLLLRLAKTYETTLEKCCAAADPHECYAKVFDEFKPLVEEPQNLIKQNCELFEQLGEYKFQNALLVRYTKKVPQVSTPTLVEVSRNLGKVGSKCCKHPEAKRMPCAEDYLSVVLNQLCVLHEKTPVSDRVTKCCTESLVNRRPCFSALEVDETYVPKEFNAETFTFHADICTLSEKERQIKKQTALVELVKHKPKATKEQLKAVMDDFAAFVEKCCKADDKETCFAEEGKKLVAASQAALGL
Procedure: as §1
B1: no binding (tested: 667 nM).

Each binder was assayed against T1, Cynomolgus Serum Albumin (assay: pull-down of endogenous albumin from cynomolgus serum).
B2: no binding. B3: no binding. B4: no binding. B5: no binding. B6: no binding. B7: no binding.

These binders were tested against T2, Human Serum Albumin (assay: ELISA, 667 nM FN3 protein on immobilized human albumin).
Procedure: as §1
In the case of B1, the “Human Albumin (RLU)” value is reported as 8350 RLU. For B8, the “Human Albumin (RLU)” value was 23100 RLU. For B9, the “Human Albumin (RLU)” value was 47400 RLU. In the case of B10, the “Human Albumin (RLU)” value is reported as 1020 RLU. In the case of B2, the “Human Albumin (RLU)” value is reported as 2100 RLU. For B3, the “Human Albumin (RLU)” value was 600 RLU. For B11, the “Human Albumin (RLU)” value was 250 RLU. In the case of B4, the “Human Albumin (RLU)” value is reported as 950 RLU. In the case of B12, the “Human Albumin (RLU)” value is reported as 15900 RLU. For B13, the “Human Albumin (RLU)” value was 2950 RLU. B5 was tested, and the “Human Albumin (RLU)” value was 550 RLU. B14 was tested, and the “Human Albumin (RLU)” value was 107000 RLU. For B15, the “Human Albumin (RLU)” value was 97400 RLU. B16 was tested, and the “Human Albumin (RLU)” value was 4480 RLU. B6 was tested, and the “Human Albumin (RLU)” value was 1000 RLU. With B17 the “Human Albumin (RLU)” value was 50600 RLU. B18 was tested, and the “Human Albumin (RLU)” value was 69800 RLU. B7 was tested, and the “Human Albumin (RLU)” value was 2350 RLU. With B19 the “Human Albumin (RLU)” value was 2950 RLU. B20 was tested, and the “Human Albumin (RLU)” value was 21700 RLU.

The binders below were run against T2, Human Serum Albumin (assay: pull-down of endogenous albumin from human serum).
B2: no binding. B3: no binding. B11: no binding. B4: no binding. B5: no binding. B6: no binding. B7: no binding.

Each binder was assayed against T1, Cynomolgus Serum Albumin (assay: ELISA, 667 nM FN3 protein on immobilized cynomolgus albumin).
Procedure: as §1
B1 was tested, and the “Cyno Albumin (RLU)” value was 775 RLU. For B8, the “Cyno Albumin (RLU)” value was 43600 RLU. For B9, the “Cyno Albumin (RLU)” value was 66300 RLU. For B10, the “Cyno Albumin (RLU)” value was 1150 RLU. With B2 the “Cyno Albumin (RLU)” value was 2000 RLU. For B3, the “Cyno Albumin (RLU)” value was 500 RLU. Binder B11 has a Cyno Albumin (RLU) of 9200 RLU. In the case of B4, the “Cyno Albumin (RLU)” value is reported as 1600 RLU. In the case of B12, the “Cyno Albumin (RLU)” value is reported as 42300 RLU. In the case of B13, the “Cyno Albumin (RLU)” value is reported as 2950 RLU. For B5, the “Cyno Albumin (RLU)” value was 600 RLU. B14 was tested, and the “Cyno Albumin (RLU)” value was 73600 RLU. With B15 the “Cyno Albumin (RLU)” value was 145000 RLU. For B16, the “Cyno Albumin (RLU)” value was 9180 RLU. B6 was tested, and the “Cyno Albumin (RLU)” value was 2500 RLU. With B17 the “Cyno Albumin (RLU)” value was 46200 RLU. For B18, the “Cyno Albumin (RLU)” value was 64400 RLU. For B7, the “Cyno Albumin (RLU)” value was 1500 RLU. B19 was tested, and the “Cyno Albumin (RLU)” value was 2950 RLU. With B20 the “Cyno Albumin (RLU)” value was 24100 RLU.

Reference: US20230039851A1 (ARO BIOTHERAPEUTICS, published 2023)
